Source: US20160215045A1 (Eli Lilly, published 2016)

How the values were obtained:
human VEGFA165 [1] = molecular target: T1, human VEGFA165 (human, UniProt P15692 207-395); assay: Biacore SPR at 25 C; antibody captured on Protein A, hVEGFA165 as analyte; 1:1 fit
T1 construct: Recombinant soluble protein; also called hVEGFA165; rhVEGFA
Method: (§1) Immobilization of soluble Protein A (Calbiochem #539202) on a CM4 (GE Healthcare #BR-1005-34) or CMS (GE Healthcare #BR-1000-99) is prepared using EDC/NHS amine coupling method (GE Healthcare #BR-1000-50). Briefly, the surfaces of all four flow cells is activated by injecting a 1:1 mixture of EDC/NHS for seven minutes at 10 μL/min After which, soluble protein A is diluted to 50-100 μg/mL in 10 mM acetate buffer, pH 4.5, and immobilized for seven minutes onto flow cell (Fc) 2, 3 or 4 at a flow rate of 10 μL/min. Unreacted sites still remaining on the chip surface are blocked with a seven minute injection of ethanolamine at 10 μL/min Running buffer is HBS-EP+ (GE Healthcare #BR-1006-69) with addition of 100 mM NaCl. Compound samples are prepared at 1 μg/mL by dilution into running buffer. […] Resultant data is processed using standard double-referencing and fit to a 1:1 binding model using Biacore 2000 Evaluation software, version 4.1, to determine the association rate (kₒₙ, M⁻¹s⁻¹ units), dissociation rate (koff, s⁻¹ units). Calculation of the equilibrium dissociation constant (KD) is calculated from the following relationship, KD=koff/kₒₙ, and is presented in molar units.

human VEGFA165 [2] = molecular target: T1, human VEGFA165; assay: cell-based or functional assay
human VEGFA165 [3] = molecular target: T1, human VEGFA165; assay: KinExA kinetic exclusion assay at 25 C, solution equilibrium with hVEGFA165
Text: (§2) A KinExA 3200 instrument is used to measure binding kinetics to human VEGFA165. Briefly, human VEGFA165 is covalently coupled to NHS-activated sepharose beads (GE Healthcare #17-0906-01) and the binding of free Mab to the conjugated beads is detected on the KinExA 3200. […] (depending on the temperature analyzed) in Casein Blocking Buffer (ThermoFisher #37528). […] It follows that the relative intensity of signal generated in these steps is proportional to the degree of free/uncomplexed compound present in each solution tested. The resultant composite set of fluorescent intensities is plotted as a function of the concentration of human VEGFA165 present in each discrete sample and fit using the N-curve analysis software (KinExA) to a standard two state binding model to determine KD for the given MOI. Statistical confidence is reported by calculation of the 95% confidence intervals.

human VEGFA165 [4] = molecular target: T1, human VEGFA165; assay: Biacore SPR at 25 C; antibody captured on Protein A, hVEGFA165 as analyte; value called an upper limit
Method: as §1

human VEGFA165 [5] = molecular target: T1, human VEGFA165; assay: KinExA kinetic exclusion assay at 37 C, solution equilibrium with hVEGFA165
Text: as §2

human VEGFA165 [6] = molecular target: T1, human VEGFA165; assay: Biacore SPR at 25 C; antibody captured on Protein A, hVEGFA165 as analyte; 1:1 fit; off-rate too slow to quantitate accurately
Method: as §1

T1 sequence (P15692 other isoform, or with tags, fused parts or gaps): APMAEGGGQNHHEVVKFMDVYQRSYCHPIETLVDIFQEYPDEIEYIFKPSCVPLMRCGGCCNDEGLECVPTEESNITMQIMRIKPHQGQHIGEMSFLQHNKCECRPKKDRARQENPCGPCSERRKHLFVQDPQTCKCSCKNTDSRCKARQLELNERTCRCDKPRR

kon (human VEGFA165 [1]): 2.93e+06 M⁻¹ s⁻¹ | IC50 for inhibition of VEGFA165 induced proliferation of ECFC (3H thymidine) (human VEGFA165 [2]): 1.38 nM | IC50 for inhibition of VEGFA induced cord formation in ADSC/ECFC co-culture (total tube area) (human VEGFA165 [2]): 1.57 nM | Kd (human VEGFA165 [3]): 0.027 nM | Kd (human VEGFA165 [4]): ≤ 0.0132 nM | Kd (human VEGFA165 [5]): 0.183 nM | koff (human VEGFA165 [6]): 3.9e-05 s⁻¹
B1: parental anti-VEGFA antibody of Compound A (antibody, human IgG4 S228P, kappa, F234A L235A, V domains shown)
VH: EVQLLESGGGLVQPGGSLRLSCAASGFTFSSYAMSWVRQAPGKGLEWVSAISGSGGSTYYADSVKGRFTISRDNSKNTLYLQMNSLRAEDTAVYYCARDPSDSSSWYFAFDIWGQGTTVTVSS
VL: DIVMTQSPATLSVSPGQRATLSCRASQNIRNNLAWYQQKRGQAPRLLIYGASTRATGIPDRFSGSGSGADFTLTISKLEPEDFAVYYCQQYGSSPRTFGQGTKVDIKR
notes: also called Parental VEGFA Ab; parental VEGFA antibody
